Test results published in the supplement of paper PMC10567573.

B1: MYBL2 (parent)
chain: VKKSCWTEEEDRIICEAHKVLGNR

Variants of: B1
Test: protein stability index of a GFP-peptide fusion (GPS, HEK-293T) (PSI 1-6); higher = more stable
Settings: c terminus: a fixed tail appended
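Further: lentivirally expressed fusions sorted by FACS into six bins by GFP to DsRed ratio, PSI derived from sequencing read proportions per bin multiplied by bin number.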

Row | Variant | protein stability index
1 | VKKSCWTEEEDSIICEAHKVLGNR | 3.25
2 | VKKSCWTEEEDTIICEAHKVLGNR | 3.2
3 | VKKSCWTEEEDVIICEAHKVLGNR | 3.28
4 | VKKSCWTEEEDWIICEAHKVLGNR | 2.22
5 | VKKSCWTEEEDYIICEAHKVLGNR | 3.16
6 | VKKSCWTEEEDRAICEAHKVLGNR | 4.41
7 | VKKSCWTEEEDRCICEAHKVLGNR | 2.77
8 | VKKSCWTEEEDRDICEAHKVLGNR | 4.37
9 | VKKSCWTEEEDREICEAHKVLGNR | 3.5
10 | VKKSCWTEEEDRFICEAHKVLGNR | 3
11 | VKKSCWTEEEDRGICEAHKVLGNR | 4.41
12 | VKKSCWTEEEDRHICEAHKVLGNR | 3.29
13 | VKKSCWTEEEDRKICEAHKVLGNR | 3.82
14 | VKKSCWTEEEDRLICEAHKVLGNR | 3.06
15 | VKKSCWTEEEDRMICEAHKVLGNR | 3.67
16 | VKKSCWTEEEDRNICEAHKVLGNR | 3.46
17 | VKKSCWTEEEDRPICEAHKVLGNR | 3.85
18 | VKKSCWTEEEDRQICEAHKVLGNR | 4.24
19 | VKKSCWTEEEDRRICEAHKVLGNR | 3.19
20 | VKKSCWTEEEDRSICEAHKVLGNR | 4.32
21 | VKKSCWTEEEDRTICEAHKVLGNR | 3.74
22 | VKKSCWTEEEDRVICEAHKVLGNR | 4.55
23 | VKKSCWTEEEDRWICEAHKVLGNR | 2.47
24 | VKKSCWTEEEDRYICEAHKVLGNR | 3.01

Row | Variant | protein stability index
25 | VKKSCWTEEEDRIACEAHKVLGNR | 4.24
26 | VKKSCWTEEEDRICCEAHKVLGNR | 3.3
27 | VKKSCWTEEEDRIDCEAHKVLGNR | 3.69
28 | VKKSCWTEEEDRIECEAHKVLGNR | 4.24
29 | VKKSCWTEEEDRIFCEAHKVLGNR | 2.91
30 | VKKSCWTEEEDRIGCEAHKVLGNR | 2.86
31 | VKKSCWTEEEDRIHCEAHKVLGNR | 4.29
32 | VKKSCWTEEEDRIKCEAHKVLGNR | 4.53
33 | VKKSCWTEEEDRILCEAHKVLGNR | 3.41
34 | VKKSCWTEEEDRIMCEAHKVLGNR | 3.29
35 | VKKSCWTEEEDRINCEAHKVLGNR | 3.28
36 | VKKSCWTEEEDRIPCEAHKVLGNR | 3.67
37 | VKKSCWTEEEDRIQCEAHKVLGNR | 4
38 | VKKSCWTEEEDRIRCEAHKVLGNR | 3.7
39 | VKKSCWTEEEDRISCEAHKVLGNR | 4.11
40 | VKKSCWTEEEDRITCEAHKVLGNR | 4.39
41 | VKKSCWTEEEDRIVCEAHKVLGNR | 3.71
42 | VKKSCWTEEEDRIWCEAHKVLGNR | 3.12
43 | VKKSCWTEEEDRIYCEAHKVLGNR | 3.23
44 | VKKSCWTEEEDRIIAEAHKVLGNR | 3.43
45 | VKKSCWTEEEDRIIDEAHKVLGNR | 4.16
46 | VKKSCWTEEEDRIIEEAHKVLGNR | 3.94
47 | VKKSCWTEEEDRIIFEAHKVLGNR | 2.79
48 | VKKSCWTEEEDRIIGEAHKVLGNR | 4.39

Row | Variant | protein stability index
49 | VKKSCWTEEEDRIIHEAHKVLGNR | 3.76
50 | VKKSCWTEEEDRIIIEAHKVLGNR | 3.47
51 | VKKSCWTEEEDRIIKEAHKVLGNR | 3.47
52 | VKKSCWTEEEDRIILEAHKVLGNR | 3.82
53 | VKKSCWTEEEDRIIMEAHKVLGNR | 2.87
54 | VKKSCWTEEEDRIINEAHKVLGNR | 3.65
55 | VKKSCWTEEEDRIIPEAHKVLGNR | 4.16
56 | VKKSCWTEEEDRIIQEAHKVLGNR | 3.85
57 | VKKSCWTEEEDRIIREAHKVLGNR | 3.36
58 | VKKSCWTEEEDRIISEAHKVLGNR | 3.69
59 | VKKSCWTEEEDRIITEAHKVLGNR | 3.74
60 | VKKSCWTEEEDRIIVEAHKVLGNR | 3.85
61 | VKKSCWTEEEDRIIWEAHKVLGNR | 2.59
62 | VKKSCWTEEEDRIIYEAHKVLGNR | 3.01
63 | VKKSCWTEEEDRIICAAHKVLGNR | 2.84
64 | VKKSCWTEEEDRIICCAHKVLGNR | 1.94
65 | VKKSCWTEEEDRIICDAHKVLGNR | 3.66
66 | VKKSCWTEEEDRIICFAHKVLGNR | 1.69
67 | VKKSCWTEEEDRIICGAHKVLGNR | 4
68 | VKKSCWTEEEDRIICHAHKVLGNR | 3.1
69 | VKKSCWTEEEDRIICIAHKVLGNR | 1.84
70 | VKKSCWTEEEDRIICKAHKVLGNR | 3.08
71 | VKKSCWTEEEDRIICLAHKVLGNR | 1.83
72 | VKKSCWTEEEDRIICMAHKVLGNR | 1.78

Row | Variant | protein stability index
73 | VKKSCWTEEEDRIICNAHKVLGNR | 3.15
74 | VKKSCWTEEEDRIICPAHKVLGNR | 3.54
75 | VKKSCWTEEEDRIICQAHKVLGNR | 3.14
76 | VKKSCWTEEEDRIICRAHKVLGNR | 3.13
77 | VKKSCWTEEEDRIICSAHKVLGNR | 3.06
78 | VKKSCWTEEEDRIICTAHKVLGNR | 2.72
79 | VKKSCWTEEEDRIICVAHKVLGNR | 2.31
80 | VKKSCWTEEEDRIICWAHKVLGNR | 2.39
81 | VKKSCWTEEEDRIICYAHKVLGNR | 2.32
82 | VKKSCWTEEEDRIICECHKVLGNR | 2.12
83 | VKKSCWTEEEDRIICEDHKVLGNR | 4.36
84 | VKKSCWTEEEDRIICEEHKVLGNR | 3.49
85 | VKKSCWTEEEDRIICEFHKVLGNR | 2.65
86 | VKKSCWTEEEDRIICEGHKVLGNR | 4.14
87 | VKKSCWTEEEDRIICEHHKVLGNR | 3.46
88 | VKKSCWTEEEDRIICEIHKVLGNR | 2.09
89 | VKKSCWTEEEDRIICEKHKVLGNR | 3.68
90 | VKKSCWTEEEDRIICELHKVLGNR | 1.59
91 | VKKSCWTEEEDRIICEMHKVLGNR | 3.03
92 | VKKSCWTEEEDRIICENHKVLGNR | 3.88
93 | VKKSCWTEEEDRIICEPHKVLGNR | 3.12
94 | VKKSCWTEEEDRIICEQHKVLGNR | 3.83
